# Like-named read-outs stand apart in the source and are kept apart here.
# T1: human SEMA4A expressed on cells (UniProt ID Q9H3S1, isoform 1) (human, UniProt Q9H3S1 33-761)
# T1 sequence: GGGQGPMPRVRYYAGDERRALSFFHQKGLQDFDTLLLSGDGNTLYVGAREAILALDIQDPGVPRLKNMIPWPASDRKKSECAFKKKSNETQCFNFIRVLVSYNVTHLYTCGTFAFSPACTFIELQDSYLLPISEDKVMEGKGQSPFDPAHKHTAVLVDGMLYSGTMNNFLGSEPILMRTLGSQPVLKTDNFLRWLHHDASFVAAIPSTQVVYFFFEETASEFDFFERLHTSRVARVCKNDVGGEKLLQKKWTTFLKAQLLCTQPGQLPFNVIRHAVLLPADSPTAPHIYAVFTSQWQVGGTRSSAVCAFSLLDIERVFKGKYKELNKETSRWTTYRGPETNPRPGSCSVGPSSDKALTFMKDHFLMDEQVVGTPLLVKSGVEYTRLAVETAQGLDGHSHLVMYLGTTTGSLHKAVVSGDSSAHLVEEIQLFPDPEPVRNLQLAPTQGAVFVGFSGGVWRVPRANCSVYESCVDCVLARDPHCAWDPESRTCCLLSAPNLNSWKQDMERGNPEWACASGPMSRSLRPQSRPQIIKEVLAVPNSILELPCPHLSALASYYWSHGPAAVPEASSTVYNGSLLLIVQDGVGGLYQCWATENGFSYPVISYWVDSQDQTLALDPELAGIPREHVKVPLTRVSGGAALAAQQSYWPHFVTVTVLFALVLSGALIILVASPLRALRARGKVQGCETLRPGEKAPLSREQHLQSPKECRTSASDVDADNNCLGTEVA
# T2: human SEMA4B expressed on expi293 cells (human, UniProt Q9NPR2 44-837)
# T2 construct: whole, on cells
# T2 sequence (looked up): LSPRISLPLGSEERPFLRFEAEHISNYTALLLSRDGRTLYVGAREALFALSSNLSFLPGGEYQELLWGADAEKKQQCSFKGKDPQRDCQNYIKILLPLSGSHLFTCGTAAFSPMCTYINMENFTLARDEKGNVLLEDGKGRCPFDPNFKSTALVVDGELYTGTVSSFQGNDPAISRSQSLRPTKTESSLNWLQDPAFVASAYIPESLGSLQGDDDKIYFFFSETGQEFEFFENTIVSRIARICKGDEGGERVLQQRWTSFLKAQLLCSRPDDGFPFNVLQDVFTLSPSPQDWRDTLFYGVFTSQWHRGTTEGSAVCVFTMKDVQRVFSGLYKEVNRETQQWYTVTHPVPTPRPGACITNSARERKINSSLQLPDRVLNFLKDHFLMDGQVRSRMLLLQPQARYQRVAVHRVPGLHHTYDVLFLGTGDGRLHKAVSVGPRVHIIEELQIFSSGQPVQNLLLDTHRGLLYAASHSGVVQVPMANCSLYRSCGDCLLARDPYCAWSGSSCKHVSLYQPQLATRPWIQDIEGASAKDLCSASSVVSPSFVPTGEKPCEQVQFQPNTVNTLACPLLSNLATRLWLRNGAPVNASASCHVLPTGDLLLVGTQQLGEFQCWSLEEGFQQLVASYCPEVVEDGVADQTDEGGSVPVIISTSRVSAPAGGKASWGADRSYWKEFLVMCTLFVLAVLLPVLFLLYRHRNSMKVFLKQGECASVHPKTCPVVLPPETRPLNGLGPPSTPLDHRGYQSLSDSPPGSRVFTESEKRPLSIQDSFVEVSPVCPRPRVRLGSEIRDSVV
# T3: mouse SEMA4A expressed on expi293 cells (UniProt ID Q62178) (mouse, UniProt Q62178 33-760)
# T3 construct: Transient transfection in expi293 cells
# T3 sequence: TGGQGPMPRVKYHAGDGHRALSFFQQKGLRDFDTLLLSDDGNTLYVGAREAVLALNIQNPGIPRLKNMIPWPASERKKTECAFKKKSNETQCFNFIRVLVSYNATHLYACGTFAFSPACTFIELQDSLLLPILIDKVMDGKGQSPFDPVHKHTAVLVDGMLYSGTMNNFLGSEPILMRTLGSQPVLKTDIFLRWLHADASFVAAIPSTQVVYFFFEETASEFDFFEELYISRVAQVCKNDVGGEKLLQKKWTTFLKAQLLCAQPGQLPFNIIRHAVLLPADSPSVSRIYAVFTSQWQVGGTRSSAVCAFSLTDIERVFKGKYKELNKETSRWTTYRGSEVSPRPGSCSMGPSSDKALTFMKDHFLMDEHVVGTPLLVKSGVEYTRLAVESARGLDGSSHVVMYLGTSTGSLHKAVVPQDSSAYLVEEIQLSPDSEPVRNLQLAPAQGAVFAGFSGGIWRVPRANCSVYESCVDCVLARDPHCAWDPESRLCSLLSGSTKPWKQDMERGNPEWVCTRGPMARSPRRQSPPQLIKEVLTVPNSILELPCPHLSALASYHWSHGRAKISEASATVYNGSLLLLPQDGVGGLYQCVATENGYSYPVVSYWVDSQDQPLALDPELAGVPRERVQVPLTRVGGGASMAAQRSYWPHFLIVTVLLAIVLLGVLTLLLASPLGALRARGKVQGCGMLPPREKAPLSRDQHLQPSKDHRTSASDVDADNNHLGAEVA
# B1: C0120904 human Alya IgG1 conjugated to McMMAF (antibody, V domains shown)
# VH: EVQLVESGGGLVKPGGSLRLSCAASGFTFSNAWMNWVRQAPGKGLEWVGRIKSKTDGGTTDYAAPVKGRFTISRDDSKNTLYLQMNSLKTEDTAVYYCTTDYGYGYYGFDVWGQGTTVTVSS
# VL: SYELTQPPSVSVSPGQTATISCSGNKLGDGYVSWYQQKPGQSPVLVIYQDSKRPSGIPQRYSGSNSGNTATLTISGTQAIDEADYYCQAWDSSTVVFGGGTKVTVL
# modifications: McMMAF on the engineered cysteines 239iCys and S442C (EU numbering) of the heavy constant region
# notes: Antibody-drug conjugate; human IgG1 Alya constant
# B2: C0120904 (antibody, V domains shown)
# VH: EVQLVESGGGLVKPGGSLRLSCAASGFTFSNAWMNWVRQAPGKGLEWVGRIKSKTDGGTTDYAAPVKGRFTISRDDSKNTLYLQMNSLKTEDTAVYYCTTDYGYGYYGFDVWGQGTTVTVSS
# VL: SYELTQPPSVSVSPGQTATISCSGNKLGDGYVSWYQQKPGQSPVLVIYQDSKRPSGIPQRYSGSNSGNTATLTISGTQAIDEADYYCQAWDSSTVVFGGGTKVTVL
# modifications: 239iCys and S442C (EU numbering) in the constant region
# notes: purified, unconjugated; also called C0120904 human Alya IgG1 (unconjugated)
# B3: 5Hg1-5Lg2 human Alya IgG1 conjugated to McMMAF (antibody, V domains shown)
# VH: QVQLVQSGAEVKKPGASVKVSCKASGYTFTDYWMHWVRQAPGQGLEWMGAIDTSDSYTSYNQKFKGRVTMTRDTSTSTVYMELSSLRSEDTAVYYCARDYGNFYYYAMDYWGQGTLVTVSS
# VL: QAVVTQEPSLTVSPGGTVTLTCRSSTGAVTTSNYANWFQQKPGQAPRTLIYGTNNRAPWTPARFSGSLLGGKAALTLLGAQPEDEAEYYCALWYSNHWVFGGGTKLTVL
# modifications: McMMAF on the engineered cysteines 239iCys and S442C (EU numbering) of the heavy constant region
# notes: as for B1
# B4: 5Hg2-5Lg3 human Alya IgG1 conjugated to McMMAF (antibody, V domains shown)
# VH: QVQLVQSGAEVKKPGASVKVSCKASGYTFTDYWMHWVRQAPGQRLEWMGAIDTSDSYTSYNQKFKGRVTITRDTSASTAYMELSSLRSEDTAVYYCARDYGNFYYYAMDYWGQGTLVTVSS
# VL: QTVVTQEPSFSVSPGGTVTLTCRSSTGAVTTSNYANWYQQTPGQAPRTLIYGTNNRAPGVPDRFSGSILGNKAALTITGAQADDESDYYCALWYSNHWVFGGGTKLTVL
# modifications: McMMAF on the engineered cysteines 239iCys and S442C (EU numbering) of the heavy constant region
# notes: as for B1
# B5: 5Hg2-5Lg1 human Alya IgG1 conjugated to McMMAF (antibody, V domains shown)
# VH: QVQLVQSGAEVKKPGASVKVSCKASGYTFTDYWMHWVRQAPGQRLEWMGAIDTSDSYTSYNQKFKGRVTITRDTSASTAYMELSSLRSEDTAVYYCARDYGNFYYYAMDYWGQGTLVTVSS
# VL: QAVVTQEPSLTVSPGGTVTLTCRSSTGAVTTSNYANWFQQKPGQAPRTLIYGTNNRAPWTPARFSGSLLGGKAALTLSGAQPEDEAEYYCALWYSNHWVFGGGTKLTVL
# modifications: McMMAF on the engineered cysteines 239iCys and S442C (EU numbering) of the heavy constant region
# notes: as for B1
# B6: C0120913 (antibody, V domains shown)
# VH: QVQLVQSGAEVKKPGESLKISCKGSGYSFTSYWVGWVRQMPGKGLEWMGIIYPGDSDARYGPSFQGQVTISADKSINTAYLQWNSLKASDTATYYCARLGDGAYYYYLDVWGRGTMVTVSS
# VL: SYELTQPPSVSESPGRTVTISCSGSSGSIASNFVHWYQQRPGSAPTTVIYEDDQRPSGVPDRFSGSIDSSSNSASLTISGLKTEDEADYYCQSYDNNDHAVFGGGTKLTVL
# modifications: 239iCys and S442C (EU numbering) in the constant region
# notes: purified, unconjugated; also called C0120913 human Alya IgG1 (unconjugated)
# B7: C0120919 (antibody, V domains shown)
# VH: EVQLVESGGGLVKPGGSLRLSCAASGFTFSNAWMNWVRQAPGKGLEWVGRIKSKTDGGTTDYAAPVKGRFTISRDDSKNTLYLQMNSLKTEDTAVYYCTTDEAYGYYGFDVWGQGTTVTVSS
# VL: QSALTQPPSVSVSSGQTASITCSGDKLGDKYASWYQQKPGQSPVLVIYQDTKRPSEIPERFSGSNSGNTATLTISGTQAMDEADYYCQAWDSSLVFGGGTKVTVL
# modifications: 239iCys and S442C (EU numbering) in the constant region
# notes: purified, unconjugated; also called C0120919 human Alya IgG1 (unconjugated)
# B8: C0120910 human Alya IgG1 conjugated to McMMAF (antibody, V domains shown)
# VH: QVQLVESGGGVVQPGRSLRLSCEASEFTFSNYAMHWVRQAPDKGLEWVAGILYDGATAHYADSVKGRFTISRDNSKNTLYLQINSLRAEDTAVYYCARAHYYDYWSGLSFEYWGRGTLVTVSS
# VL: QSVLTQPPSASVSPGQTASIPCSGDDLGDKYIYWYQQKPGQSPVLVIYQDSRRPPGIPERFSGSNSGNTATLTISGTQPMDEADYYCQTWDTSSASAVFGGGTKVTVL
# modifications: McMMAF on the engineered cysteines 239iCys and S442C (EU numbering) of the heavy constant region
# notes: as for B1
# B9: C0120910 (antibody, V domains shown)
# VH: QVQLVESGGGVVQPGRSLRLSCEASEFTFSNYAMHWVRQAPDKGLEWVAGILYDGATAHYADSVKGRFTISRDNSKNTLYLQINSLRAEDTAVYYCARAHYYDYWSGLSFEYWGRGTLVTVSS
# VL: QSVLTQPPSASVSPGQTASIPCSGDDLGDKYIYWYQQKPGQSPVLVIYQDSRRPPGIPERFSGSNSGNTATLTISGTQPMDEADYYCQTWDTSSASAVFGGGTKVTVL
# modifications: 239iCys and S442C (EU numbering) in the constant region
# notes: purified, unconjugated; also called C0120910 human Alya IgG1 (unconjugated)
# What was measured:
# [1] = target: T1, human SEMA4A expressed on cells …; test: cell-based or functional assay
# [2] = target: T2, human SEMA4B expressed on expi293 cells; test: Mirrorball direct binding, dilution series on expi293 cells transiently transfected with human SEMA4B, anti-human Alexa Fluor 647
# Description: To determine the specificity profile of each purified human Alya IgG1 conjugated to McMMAF, a dilution series was tested for binding to human SEMA4A, human SEMA4B and mock transfected cells (transient transfections set up in expi 293 cells.) The three assays employed methods described in section 2.3, using the appropriate cells and substituting the un-purified scFv periplasmic preparation with the human Alya IgG1 conjugated to McMMAF. Data was analysed as Count x median mean intensity (x FLU).
# [3] = target: T3, mouse SEMA4A expressed on expi293 cells …; test: Mirrorball direct binding, dilution series on expi293 cells transiently transfected with mouse SEMA4A, anti-human Alexa Fluor 647
# Source text: (§1) Hits from the primary screening were re-formatted into the human Alya IgG1 vector and re-expressed and purified as described in section 4.1. In addition, a single clone was identified that contained an Asparagine deamidation motif (Asn Gly) within its VHCDR2. This potential sequence liability was de-risked by synthesising de novo two clonal variant VH genes (Asn Ala and Gln Gly) and cloning these sequences into the human Alya IgG1 expression vector. To determine the specificity profile of each purified human Alya IgG1, a dilution series was tested for binding to human SEMA4A, mouse SEMA4A, cyno SEMA4A, human SEMA4B and mock transfected cells (transient transfections set up in expi 293 cells.) The five assays employed methods described in section 2.3, using the appropriate cells and substituting the un-purified scFv periplasmic preparation with the recombinant human Alya IgG1 dilution series. Data was analysed as Count x median mean intensity (x FLU).
# [4] = target: T2, human SEMA4B expressed on expi293 cells; test: Mirrorball direct binding, dilution series on expi293 cells transiently transfected with human SEMA4B, anti-human Alexa Fluor 647; remark: listed apart in the source
# Source text: as §1
# [5] = target: T1, human SEMA4A expressed on cells …; test: cell-based or functional assay; remark: listed apart in the source
# [6] = target: T1, human SEMA4A expressed on cells …; test: cell-based or functional assay; remark: listed apart in the source
Binder,binding result [2],binding result [3],"Average KARPAS 25 IC50 [pM], cell kill [5] [pM]","Average MM1.S IC50 [pM], cell kill [5] [pM]","Average NCI-H929 IC50 [pM], cell kill [5] [pM]",further results
B1,no binding (tested: log (M) -8 (1e-8 M)),–,–,–,–,"Average MM1.S IC50 [pM], cell kill [1]: 1490 pM; Average NCI-H929 IC50 [pM], cell kill [1]: 18100 pM"
B2,–,binds,–,–,–,binding result [4]: no binding (tested: log (M) -8 (1e-8 M))
B3,no binding (tested: log (M) -8 (1e-8 M)),–,317,15.8,59.4,"EC50 (nM), Fab-pHast internalisation into NCI-H929 [6]: 0.75 nM; Fold-Change at 6 hours (10 nM), Fab-pHast internalisation [6]: 150 fold"
B4,no binding (tested: log (M) -8 (1e-8 M)),–,316,102,863,–
B5,no binding (tested: log (M) -8 (1e-8 M)),–,228,11.8,33.6,"EC50 (nM), Fab-pHast internalisation into NCI-H929 [6]: 0.62 nM; Fold-Change at 6 hours (10 nM), Fab-pHast internalisation [6]: 144 fold"
B6,–,binds,–,–,–,–
B7,–,binds,–,–,–,binding result [4]: no binding (tested: log (M) -8 (1e-8 M))
B8,no binding (tested: log (M) -8 (1e-8 M)),–,–,–,–,"Average MM1.S IC50 [pM], cell kill [1]: 7490 pM; Average NCI-H929 IC50 [pM], cell kill [1]: 3990 pM"
B9,–,binds,–,–,–,–
